Reference: PMC10786891, “Massively parallel profiling of RNA-targeting CRISPR-Cas13d”
Residue numbers refer to the chain shown, from its start. Names may count otherwise.

B1: target 1 insC 3' of 18,insG 3' of 3 (mixed)
RNA 1: CACCCGUGCAAAAAUGCAGGGGUCUAAAACUGAGCGGAUAACCUCUCUAUGG
RNA 2: GGGAAUGGAUCCACAUCUACGAAUUCGUACCAUACGAGAGGUUAUCCGCUGCACCGAGAUCGGAAGAGCACACGU
B2: target 1 insA 3' of 8,insU 3' of 6 (mixed)
RNA 1: B1 RNA 1
RNA 2: GGGAAUGGAUCCACAUCUACGAAUUCGUACCAUAGAGAGGUUAUACCUGCUCACCGAGAUCGGAAGAGCACACGU
B3: target 1 C7A,U19G (mixed)
RNA 1: B1 RNA 1
RNA 2: GGGAAUGGAUCCACAUCUACGAAUUCGUACCAGAGAGAGGUUAUACGCUCACCGAGAUCGGAAGAGCACACGU
B4: target 1 insU 3' of 9,insU 3' of 9 (mixed)
RNA 1: B1 RNA 1
RNA 2: B2 RNA 2 with A45U, C46U, U48C
B5: target 1 insG 3' of 14,insG 3' of 7 (mixed)
RNA 1: B1 RNA 1
RNA 2: B2 RNA 2 with U41G, A43U, U44A, A45U, C47G, U48C
B6: target 1 insC 3' of 14,insU 3' of 12 (mixed)
RNA 1: B1 RNA 1
RNA 2: B2 RNA 2 with G39C, U41G, A43U, C46U, U48C
B7: target 1 insG 3' of 20,insU 3' of 18 (mixed)
RNA 1: B1 RNA 1
RNA 2: GGGAAUGGAUCCACAUCUACGAAUUCGUACCAGUAUGAGAGGUUAUCCGCUCACCGAGAUCGGAAGAGCACACGU
B8: target 1 C4A,A9G (mixed)
RNA 1: B1 RNA 1
RNA 2: B3 RNA 2 with G33U, A43G, A45C, C48A
B9: target 1 complement block 5-11 (mixed)
RNA 1: B1 RNA 1
RNA 2: B3 RNA 2 with G33U, U41A, U42A, A43U, U44A, A45G, C46G, G47C
B10: target 1 insC 3' of 22,insC 3' of 13 (mixed)
RNA 1: B1 RNA 1
RNA 2: B7 RNA 2 with A32C, G33A, U36G, G37A, A38G, G39A, A40G, G41C
B11: target 1 U3G,G12C (mixed)
RNA 1: B1 RNA 1
RNA 2: B3 RNA 2 with G33U, G40C, A45C, U49G
B12: target 1 C6G,G15U (mixed)
RNA 1: B1 RNA 1
RNA 2: B3 RNA 2 with G33U, G37U, A45C, C46G
B13: target 1 insG 3' of 7,insC 3' of 3 (mixed)
RNA 1: B1 RNA 1
RNA 2: B2 RNA 2 with A45C, C46G, U48G, G49C, C50U, U51C
B14: target 1 G12A,U19A (mixed)
RNA 1: B1 RNA 1
RNA 2: B3 RNA 2 with G33A, G40A, A45C
B15: target 1 insA 3' of 2,insU 3' of 1 (mixed)
RNA 1: B1 RNA 1
RNA 2: B2 RNA 2 with A45C, C47G, U48C, G49U, U51A, C52A, A53U
B16: target 1 insU 3' of 20,insA 3' of 10 (mixed)
RNA 1: B1 RNA 1
RNA 2: B7 RNA 2 with G33U, U36G, G37A, A38G, G39A, A40G, G42U, U44A
B17: target 1 insG 3' of 10,insG 3' of 9 (mixed)
RNA 1: B1 RNA 1
RNA 2: B2 RNA 2 with A43G, U44A, A45G, C46U, U48C
B18: target 1 insA 3' of 2,insC 3' of 1 (mixed)
RNA 1: B1 RNA 1
RNA 2: B2 RNA 2 with A45C, C47G, U48C, G49U, U51A, C52A, A53C
B19: target 1 insC 3' of 14,insG 3' of 6 (mixed)
RNA 1: B1 RNA 1
RNA 2: B2 RNA 2 with G39C, U41G, A43U, U44A, A45U, U48G
B20: target 1 A9G,G13A (mixed)
RNA 1: B1 RNA 1
RNA 2: B3 RNA 2 with G33U, G39A, A43G, A45C
B21: target 1 insU 3' of 13,insG 3' of 3 (mixed)
RNA 1: B1 RNA 1
RNA 2: B1 RNA 2 with C35G, G36A, A37G, G38A, A39G, G40U
B22: target 1 C4A,C21U (mixed)
RNA 1: B1 RNA 1
RNA 2: B3 RNA 2 with C31U, G33U, A45C, C48A
B23: target 1 C7G,C22G (mixed)
RNA 1: B1 RNA 1
RNA 2: B3 RNA 2 with C30G, G33U, A45G
B24: target 1 insA 3' of 2,insG 3' of 1 (mixed)
RNA 1: B1 RNA 1
RNA 2: B2 RNA 2 with A45C, C47G, U48C, G49U, U51A, C52A, A53G
B25: target 1 U3A,G15C (mixed)
RNA 1: B1 RNA 1
RNA 2: B3 RNA 2 with G33U, G37C, A45C, U49A
B26: target 1 insA 3' of 2,insA 3' of 2 (mixed)
RNA 1: B1 RNA 1
RNA 2: B2 RNA 2 with A45C, C47G, U48C, G49U, U51A, C52A
B27: target 1 U8C,G15C (mixed)
RNA 1: B1 RNA 1
RNA 2: B3 RNA 2 with G33U, G37C, U44C, A45C
B28: target 1 C7G,A18C (mixed)
RNA 1: B1 RNA 1
RNA 2: B3 RNA 2 with G33U, A34C, A45G
B29: target 1 G5C,U11C (mixed)
RNA 1: B1 RNA 1
RNA 2: B3 RNA 2 with G33U, U41C, A45C, G47C
B30: target 1 A1U,U19C (mixed)
RNA 1: B1 RNA 1
RNA 2: B3 RNA 2 with G33C, A45C, A51U
B31: target 1 insG 3' of 14,insA 3' of 4 (mixed)
RNA 1: B1 RNA 1
RNA 2: B1 RNA 2 with C35G, G36A, A37G, G38A, A39G, U50A, G51U
B32: target 1 insC 3' of 3,insC 3' of 3 (mixed)
RNA 1: B1 RNA 1
RNA 2: B2 RNA 2 with A45C, C47G, U48C, G49U, U51C
B33: target 1 insA 3' of 13,insG 3' of 11 (mixed)
RNA 1: B1 RNA 1
RNA 2: B2 RNA 2 with G40A, U41G, A43G, C46U, U48C
B34: target 1 insA 3' of 12,insG 3' of 6 (mixed)
RNA 1: B1 RNA 1
RNA 2: B2 RNA 2 with U41A, A43U, U44A, A45U, U48G

Molecular target: T1, EsCas13d, nuclease-dead (Eubacterium siraeum, UniProt B0MS50, R295A;H300A;R849A;H854A)
T1 sequence: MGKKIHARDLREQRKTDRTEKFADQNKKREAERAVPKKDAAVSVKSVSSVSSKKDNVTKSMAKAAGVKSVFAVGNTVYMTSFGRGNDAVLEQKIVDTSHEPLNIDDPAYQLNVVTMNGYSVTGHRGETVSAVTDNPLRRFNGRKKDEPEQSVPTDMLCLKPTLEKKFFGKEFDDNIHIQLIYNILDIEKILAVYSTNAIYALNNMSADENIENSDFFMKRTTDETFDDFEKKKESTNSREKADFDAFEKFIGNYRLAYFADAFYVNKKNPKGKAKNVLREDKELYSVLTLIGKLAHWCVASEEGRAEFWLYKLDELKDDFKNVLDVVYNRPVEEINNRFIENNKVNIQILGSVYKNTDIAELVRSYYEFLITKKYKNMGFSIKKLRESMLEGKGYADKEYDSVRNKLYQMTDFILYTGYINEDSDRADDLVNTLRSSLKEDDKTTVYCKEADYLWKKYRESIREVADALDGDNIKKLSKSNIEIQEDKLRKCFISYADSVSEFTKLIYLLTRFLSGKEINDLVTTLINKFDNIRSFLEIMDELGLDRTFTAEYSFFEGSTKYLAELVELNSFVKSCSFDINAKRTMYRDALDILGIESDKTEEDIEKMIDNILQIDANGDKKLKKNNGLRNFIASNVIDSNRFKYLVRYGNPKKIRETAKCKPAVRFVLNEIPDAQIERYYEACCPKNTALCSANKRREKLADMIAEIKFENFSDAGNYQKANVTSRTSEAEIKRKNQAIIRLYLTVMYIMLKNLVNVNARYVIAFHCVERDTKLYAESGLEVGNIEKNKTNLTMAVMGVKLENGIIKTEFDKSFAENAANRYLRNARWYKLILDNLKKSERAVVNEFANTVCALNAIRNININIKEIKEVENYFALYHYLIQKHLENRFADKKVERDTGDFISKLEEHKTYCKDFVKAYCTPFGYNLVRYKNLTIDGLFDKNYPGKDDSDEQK
Assay: crRNA (strand 1, pre-loaded); Mg2+; 40 mM Tris-HCl pH 7.5, 150 mM NaCl, 6 mM MgCl2, 1 mM DTT, 0.1% Tween-20, 0.2 mg/ml BSA; 25 C; 10 min per concentration, then washed
Details: tags: His6-TwinStrep-SUMO cleaved; N-terminal SNAP kept (SNAP-Surface 488); label: 3' end held by stalled T7 RNA polymerase

Binder | Kd
B1 | 26.8 ± 1.8 nM
B2 | 23.5 ± 1.4 nM
B3 | 55 ± 6 nM
B4 | 18.8 ± 1 nM
B5 | 6.8 ± 0.28 nM
B6 | 43 ± 9 nM
B7 | 65 ± 15 nM
B8 | 3.18 ± 0.24 nM
B9 | 19.2 ± 0.6 nM
B10 | 43 ± 15 nM
B11 | 8.1 ± 0.9 nM
B12 | 36 ± 5 nM
B13 | 6.68 ± 0.19 nM
B14 | 51 ± 11 nM
B15 | 10.5 ± 0.6 nM
B16 | 19.4 ± 1.1 nM
B17 | 8.8 ± 0.5 nM

Binder | Kd
B18 | 8.5 ± 0.6 nM
B19 | 54 ± 6 nM
B20 | 8.4 ± 0.4 nM
B21 | 14.4 ± 1.9 nM
B22 | 4.4 ± 0.7 nM
B23 | 38 ± 6 nM
B24 | 8.6 ± 0.6 nM
B25 | 32.9 ± 2.5 nM
B26 | 9.6 ± 0.4 nM
B27 | 68 ± 11 nM
B28 | 81 ± 11 nM
B29 | 16.8 ± 1.1 nM
B30 | 22.2 ± 1.6 nM
B31 | 12.2 ± 1.4 nM
B32 | 43 ± 15 nM
B33 | 13.2 ± 0.8 nM
B34 | 28 ± 4 nM
